Results published in US20240336691A1 (PROMETHEUS BIOSCIENCES, published 2024).
Where a chain is given by its changes, count along the chain named. Where “and” joins values, the source holds several entries; their conditions need not be identical. Identical values can stand only once.

B1: anti-TL1A antibody A219 (antibody, V domains shown)
VH: QVQLVQSGAEVKKPGASVKVSCKASGFDIQDTYMHWVKQRPGQGLEWMGRIDPASGHTKYDPKFQVRVTITRDTSTSTVYLELSSLRSEDTAVYYCARSGGLPDVWGQGTTVTVSS
VL: EIVLTQSPGTLSLSPGERATLSCRASSSVSYMYWYQQKPGQAPRPLIYATSNLASGIPDRFSGSGSGTDFTLTISRLEPEDFAVYYCQQWEGNPRTFGGGTKLEIK
B2: A212 (antibody, human IgG1, V domains shown)
VH: B1 VH with K38R, M48I, V68A, R72T, V79A
VL: B1 VL
B3: A147 (antibody, human IgG1, V domains shown)
VH: B1 VH with D52E, T58I, V66G, I70M, L81M, V105W
VL: B1 VL
B4: A220 (antibody, human IgG1, V domains shown)
VH: B1 VH with I70M, V79A
VL: B1 VL with L46W
B5: A219 (antibody, V domains shown)
VH: B1 VH
VL: B1 VL
B6: A213 (antibody, human IgG1, V domains shown)
VH: B1 VH with K38R, R72T, L81M
VL: B1 VL
B7: A217 (antibody, human IgG1, V domains shown)
VH: B1 VH with L81M
VL: B1 VL

target: T1, TL1A produced by cynomolgus monkey PBMCs in whole blood (cynomolgus monkey, UniProt G7PRK8 72-251); test: cell-based or functional assay
T1 sequence: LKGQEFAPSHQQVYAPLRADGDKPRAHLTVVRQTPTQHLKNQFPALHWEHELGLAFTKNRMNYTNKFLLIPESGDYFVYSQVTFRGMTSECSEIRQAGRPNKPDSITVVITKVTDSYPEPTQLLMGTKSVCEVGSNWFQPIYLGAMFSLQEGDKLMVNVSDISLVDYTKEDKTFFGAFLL

Binder | mean IC50 for the inhibition of the IFN-γ response in monkey whole blood
B1 | 1.54 nM and 289 ng/mL

target: T2, TL1A in human blood (endogenous) (human, UniProt O95150 72-251, limits assumed); test: cell-based or functional assay
T2 sequence (looked up): T1 sequence with L39F, V78I

Binder | % Inhibition at 1 nM Ig of interferon gamma release in human blood [%] | % Inhibition at 10 nM Ig of interferon gamma release in human blood [%]
B2 | 46.8 | 71.2
B3 | 51.3 | 72.4
B4 | 36.9 | 63.2
B5 | 59.8 | 75.2
B6 | 48.6 | 69.8
B7 | 46 | 72.2
